Consider two substances from publication PMC1543650.

As a reminder, the IC50 is the concentration that gives 50% inhibition. Low values mean higher potency, high ones lower potency.

For assay [1], the target named is Fc-gp120 ΔV1V2V3 (HIV-1 JR-CSF). As to the kind of experiment: flow cytometry on cells. On the technique in general: In flow cytometry, cells or beads pass a laser one at a time.
The target of assay [2] is Fc-gp120 WT (human IgG1 Fc fused N-terminal to full-length wild-type gp120 of HIV-1 JR-CSF) (HIV-1 JR-CSF). As to the kind of experiment: flow cytometry on cells.
The target in assay [3] is Fc-gp120 ΔV1V2 (HIV-1 JR-CSF). As to the kind of experiment: flow cytometry on cells.
For assay [4], the target named is Fc-gp120 ΔV3 (HIV-1 JR-CSF). Kind of assay: flow cytometry on cells.
Assay [5] addresses Fc-DC-SIGN (entire ectodomain of DC-SIGN fused in-frame with the Fc region of IgG1) (UniProt Q9NNX6). Kind of assay: ELISA. (In general: ELISA stands for enzyme-linked immunosorbent assay.)
UniProt Q9NNX6, sequence (Q9NNX6 59-404): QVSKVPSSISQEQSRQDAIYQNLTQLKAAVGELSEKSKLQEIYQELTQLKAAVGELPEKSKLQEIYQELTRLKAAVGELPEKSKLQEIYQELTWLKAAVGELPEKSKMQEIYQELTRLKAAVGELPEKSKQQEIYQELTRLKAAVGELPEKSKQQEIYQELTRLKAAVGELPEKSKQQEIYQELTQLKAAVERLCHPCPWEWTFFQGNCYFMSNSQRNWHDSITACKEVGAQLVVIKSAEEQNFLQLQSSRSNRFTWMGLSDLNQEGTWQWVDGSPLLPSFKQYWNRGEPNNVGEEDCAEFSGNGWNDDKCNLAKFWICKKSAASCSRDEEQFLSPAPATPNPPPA

In the case of “4-domain recombinant soluble CD4 (domain or fragment)”, the % inhibition of Fc-gp120 binding to CEM cells at 10 μg/ml sCD4 in assay [1] came out at 50%; in assay [2] it was 100%; in assay [3] it was 100%; in assay [4] it was 100%.

As to biotinylated Fc-gp120 (Fc fusion), in assay [5], the IC50 stood at 0.017 nM. In other words, the picomolar range.
